The values that follow come from paper PMC4847776, “Mutagenesis of mNeptune Red-Shifts Emission Spectrum to 681-685 nm” (PLoS ONE, 2016).

Some targets named below: eqFP670; mNeptune681_Q159F; mNeptune681_Q159Y.
Holding throughout (experiment): SEC; Superdex 200 10/300 GL column, PBS (pH 7.4), protein approximate 3–4 mg/ml; elution volume compared with mNeptune (monomer standard) and eqFP670 (dimer standard)
Another assay concerns the target T1, mNeptune681_Q159C.
T1 chain: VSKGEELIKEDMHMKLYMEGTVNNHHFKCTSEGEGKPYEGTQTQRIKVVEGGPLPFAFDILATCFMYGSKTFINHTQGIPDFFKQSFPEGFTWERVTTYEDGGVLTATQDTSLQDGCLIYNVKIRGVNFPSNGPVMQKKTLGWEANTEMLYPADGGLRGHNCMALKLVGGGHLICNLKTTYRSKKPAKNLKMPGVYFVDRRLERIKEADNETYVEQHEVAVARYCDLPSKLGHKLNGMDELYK
Particulars: both partners purified.

A further assay concerns the target T2, mNeptune681_Q159M.
T2 chain: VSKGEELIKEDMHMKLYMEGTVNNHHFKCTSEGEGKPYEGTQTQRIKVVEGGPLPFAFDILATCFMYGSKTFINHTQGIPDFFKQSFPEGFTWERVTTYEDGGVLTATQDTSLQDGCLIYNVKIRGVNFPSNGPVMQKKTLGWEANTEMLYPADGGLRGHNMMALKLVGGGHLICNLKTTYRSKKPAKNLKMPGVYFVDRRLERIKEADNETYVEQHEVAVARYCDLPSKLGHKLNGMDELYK
The note with it: both partners purified.

The target in the next assay is T3, mNeptune681_Q159T.
T3 chain: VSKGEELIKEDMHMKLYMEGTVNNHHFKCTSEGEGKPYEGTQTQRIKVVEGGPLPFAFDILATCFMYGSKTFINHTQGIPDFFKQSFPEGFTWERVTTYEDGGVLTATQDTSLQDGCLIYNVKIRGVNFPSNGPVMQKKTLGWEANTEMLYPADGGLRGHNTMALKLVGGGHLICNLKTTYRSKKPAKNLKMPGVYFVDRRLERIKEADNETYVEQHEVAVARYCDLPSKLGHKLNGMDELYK
Particulars: both partners purified.

The target in a further assay is T4, mNeptune681_Q159V.
T4 chain: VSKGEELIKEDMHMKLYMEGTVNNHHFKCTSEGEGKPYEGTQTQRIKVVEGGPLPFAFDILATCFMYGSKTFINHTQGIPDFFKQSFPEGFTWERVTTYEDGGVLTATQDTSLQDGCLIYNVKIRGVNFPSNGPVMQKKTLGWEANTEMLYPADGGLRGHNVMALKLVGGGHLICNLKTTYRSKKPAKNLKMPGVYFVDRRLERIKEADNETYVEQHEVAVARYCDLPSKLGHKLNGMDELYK
The note with it: both partners purified.

In the next assay the target is T5, mNeptune681_Q159W.
T5 chain: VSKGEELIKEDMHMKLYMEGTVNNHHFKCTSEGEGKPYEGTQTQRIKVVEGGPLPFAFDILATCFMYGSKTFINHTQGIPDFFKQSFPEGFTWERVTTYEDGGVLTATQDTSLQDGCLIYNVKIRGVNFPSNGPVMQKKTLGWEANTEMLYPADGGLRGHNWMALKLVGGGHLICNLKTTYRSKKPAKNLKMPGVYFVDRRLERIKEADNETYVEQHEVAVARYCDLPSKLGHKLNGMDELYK
Particulars: both partners purified.

The next assay concerns the target T6, mNeptune681_Q159I.
T6 chain: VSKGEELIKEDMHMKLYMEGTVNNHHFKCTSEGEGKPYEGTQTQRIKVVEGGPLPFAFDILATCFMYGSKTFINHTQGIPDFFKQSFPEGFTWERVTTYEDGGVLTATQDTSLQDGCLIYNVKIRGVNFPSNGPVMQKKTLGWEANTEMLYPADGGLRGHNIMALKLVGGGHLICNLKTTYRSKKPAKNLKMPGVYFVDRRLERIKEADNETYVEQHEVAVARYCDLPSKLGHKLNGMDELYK
The note with it: both partners purified.

The next assay deals with T7, mNeptune681_Q159L.
T7 chain: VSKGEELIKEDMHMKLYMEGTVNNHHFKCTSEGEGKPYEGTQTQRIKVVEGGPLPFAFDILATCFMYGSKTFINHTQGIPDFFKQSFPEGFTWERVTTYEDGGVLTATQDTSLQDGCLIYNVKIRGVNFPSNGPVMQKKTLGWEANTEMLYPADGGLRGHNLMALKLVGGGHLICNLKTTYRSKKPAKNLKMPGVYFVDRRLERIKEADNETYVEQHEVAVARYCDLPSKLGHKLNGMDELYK
The note with it: both partners purified.

For the molecule eqFP670, in the assay with eqFP670, the stoichiometry N came out at 2.

In turn, mNeptune681_Q159F returned a stoichiometry N in the assay with mNeptune681_Q159F of 2.

mNeptune681_Q159Y had a stoichiometry N with mNeptune681_Q159Y of 2.

B1: mNeptune681_Q159C (other)
chain: VSKGEELIKEDMHMKLYMEGTVNNHHFKCTSEGEGKPYEGTQTQRIKVVEGGPLPFAFDILATCFMYGSKTFINHTQGIPDFFKQSFPEGFTWERVTTYEDGGVLTATQDTSLQDGCLIYNVKIRGVNFPSNGPVMQKKTLGWEANTEMLYPADGGLRGHNCMALKLVGGGHLICNLKTTYRSKKPAKNLKMPGVYFVDRRLERIKEADNETYVEQHEVAVARYCDLPSKLGHKLNGMDELYK
modifications: autocatalytic Met-Tyr-Gly chromophore / autocatalytic Met-Tyr-Gly chromophore
B1: the “stoichiometry N” value in the assay with mNeptune681_Q159C was 2.

B2: mNeptune681_Q159M (other)
chain: VSKGEELIKEDMHMKLYMEGTVNNHHFKCTSEGEGKPYEGTQTQRIKVVEGGPLPFAFDILATCFMYGSKTFINHTQGIPDFFKQSFPEGFTWERVTTYEDGGVLTATQDTSLQDGCLIYNVKIRGVNFPSNGPVMQKKTLGWEANTEMLYPADGGLRGHNMMALKLVGGGHLICNLKTTYRSKKPAKNLKMPGVYFVDRRLERIKEADNETYVEQHEVAVARYCDLPSKLGHKLNGMDELYK
modifications: autocatalytic Met-Tyr-Gly chromophore / autocatalytic Met-Tyr-Gly chromophore
As for B2, the “stoichiometry N” value with mNeptune681_Q159M amounted to 2.

B3: mNeptune681_Q159T (other)
chain: VSKGEELIKEDMHMKLYMEGTVNNHHFKCTSEGEGKPYEGTQTQRIKVVEGGPLPFAFDILATCFMYGSKTFINHTQGIPDFFKQSFPEGFTWERVTTYEDGGVLTATQDTSLQDGCLIYNVKIRGVNFPSNGPVMQKKTLGWEANTEMLYPADGGLRGHNTMALKLVGGGHLICNLKTTYRSKKPAKNLKMPGVYFVDRRLERIKEADNETYVEQHEVAVARYCDLPSKLGHKLNGMDELYK
modifications: autocatalytic Met-Tyr-Gly chromophore / autocatalytic Met-Tyr-Gly chromophore
As to B3, the “stoichiometry N” value in the assay with mNeptune681_Q159T was determined as 2.

B4: mNeptune681_Q159V (other)
chain: VSKGEELIKEDMHMKLYMEGTVNNHHFKCTSEGEGKPYEGTQTQRIKVVEGGPLPFAFDILATCFMYGSKTFINHTQGIPDFFKQSFPEGFTWERVTTYEDGGVLTATQDTSLQDGCLIYNVKIRGVNFPSNGPVMQKKTLGWEANTEMLYPADGGLRGHNVMALKLVGGGHLICNLKTTYRSKKPAKNLKMPGVYFVDRRLERIKEADNETYVEQHEVAVARYCDLPSKLGHKLNGMDELYK
modifications: autocatalytic Met-Tyr-Gly chromophore / autocatalytic Met-Tyr-Gly chromophore
As to B4, in the assay with mNeptune681_Q159V, the “stoichiometry N” value came out at 2.

B5: mNeptune681_Q159W (other)
chain: VSKGEELIKEDMHMKLYMEGTVNNHHFKCTSEGEGKPYEGTQTQRIKVVEGGPLPFAFDILATCFMYGSKTFINHTQGIPDFFKQSFPEGFTWERVTTYEDGGVLTATQDTSLQDGCLIYNVKIRGVNFPSNGPVMQKKTLGWEANTEMLYPADGGLRGHNWMALKLVGGGHLICNLKTTYRSKKPAKNLKMPGVYFVDRRLERIKEADNETYVEQHEVAVARYCDLPSKLGHKLNGMDELYK
modifications: autocatalytic Met-Tyr-Gly chromophore / autocatalytic Met-Tyr-Gly chromophore
For B5, the “stoichiometry N” value in the assay with mNeptune681_Q159W stood at 2.

B6: mNeptune681_Q159I (other)
chain: VSKGEELIKEDMHMKLYMEGTVNNHHFKCTSEGEGKPYEGTQTQRIKVVEGGPLPFAFDILATCFMYGSKTFINHTQGIPDFFKQSFPEGFTWERVTTYEDGGVLTATQDTSLQDGCLIYNVKIRGVNFPSNGPVMQKKTLGWEANTEMLYPADGGLRGHNIMALKLVGGGHLICNLKTTYRSKKPAKNLKMPGVYFVDRRLERIKEADNETYVEQHEVAVARYCDLPSKLGHKLNGMDELYK
modifications: autocatalytic Met-Tyr-Gly chromophore / autocatalytic Met-Tyr-Gly chromophore
Take B6: the “stoichiometry N” value with mNeptune681_Q159I is 2.

B7: mNeptune681_Q159L (other)
chain: VSKGEELIKEDMHMKLYMEGTVNNHHFKCTSEGEGKPYEGTQTQRIKVVEGGPLPFAFDILATCFMYGSKTFINHTQGIPDFFKQSFPEGFTWERVTTYEDGGVLTATQDTSLQDGCLIYNVKIRGVNFPSNGPVMQKKTLGWEANTEMLYPADGGLRGHNLMALKLVGGGHLICNLKTTYRSKKPAKNLKMPGVYFVDRRLERIKEADNETYVEQHEVAVARYCDLPSKLGHKLNGMDELYK
modifications: autocatalytic Met-Tyr-Gly chromophore / autocatalytic Met-Tyr-Gly chromophore
With B7, in the assay with mNeptune681_Q159L, the “stoichiometry N” value came to 2.
